In IntAct's records for PubMed 17889654:

B1: Transcriptional coactivator yorkie (Drosophila melanogaster (Fruit fly)), Q45VV3 (parent)
chain: MLTTMSASSNTNSLIEKEIDDEDMLSPIKSNNLVVRVNQDTDDNLQALFDSVLNPGDAKRPLQLPLRMRKLPNSFFTPPAPSHSRANSADSTYDAGSQSSINIGNKASIVQQPDGQSPIAAIPQLQIQPSPQHSRLAIHHSRARSSPASLQQNYNVRARSDAAAANNPNANPSSQQQPAGPTFPENSAQEFPSGAPASSAIDLDAMNTCMSQDIPMSMQTVHKKQRSYDVISPIQLNRQLGALPPGWEQAKTNDGQIYYLNHTTKSTQWEDPRIQYRQQQQILMAERIKQNDVLQTTKQTTTSTIANNLGPLPDGWEQAVTESGDLYFINHIDRTTSWNDPRMQSGLSVLDCPDNLVSSLQIEDNLCSNLFNDAQAIVNPPSSHKPDDLEWYKIN
partner: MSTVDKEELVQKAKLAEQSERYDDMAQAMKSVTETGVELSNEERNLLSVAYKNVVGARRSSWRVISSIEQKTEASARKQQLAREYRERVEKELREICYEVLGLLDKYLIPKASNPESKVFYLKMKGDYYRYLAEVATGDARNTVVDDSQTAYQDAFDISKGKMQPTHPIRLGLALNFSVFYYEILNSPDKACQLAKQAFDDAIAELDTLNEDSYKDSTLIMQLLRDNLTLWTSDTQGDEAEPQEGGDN

Variants of: B1
Conditions: with 1433z_drome 14-3-3zeta

Row | Variant | effect of a mutation on the interaction
1 | S145A | decreasing interaction
